A short description of this data set: soluble on expression in E. coli; label from the status in PepcDB or PDB records.
With “MTNPNIPDDLLAKIAKKMADKCWWYLGPMLKSGPRGRDIVYRPDVLKNANIFSMCDDPDDFYAAGHDPNDINSEGRYRPFFKWCLQAGNPTAIYHEGLRLVTHESDIQGAILHLERIAPRNAAATLACAILYICAGNAHMGGVYLRLFGSNHYALESEDARDI”, the “soluble on expression in E. coli” value was “soluble”. “MTNQPTEIAIVGGGMVGGALALGLAQHGFSVTVIEHAEPAPFVADSQPDVRISAISAASVSLLKGLGVWDAVQAMRCHPYRRLETWEWETAHVVFDAAELKLPLLGYMVENTVLQQALWQALEAHPKVTLRVPTSLIALHRDNDLQELELKGGETIRAKLVIGADGANSQVRQMAGIGVHAWQYAQSCMLISVQCENDPGDSTWQQFTPDGPRAFLPLFDNWASLVWYDSPTRIRQLQNMNMAQLQAEIAKHFPSRLGYVTPLAAGAFPLTRRHALQYVQPGLALVGDAAHTIHPLAGQGVNLGYRDVDALIDVLVNARSYGEAWASYPVLKRYQMRRMADNFIMQSGMDLFYAGFSNNLPPLRFVRNLGLMAAERAGVLKRQALKYALGLLEHHHHHH”: the “soluble on expression in E. coli” value was “not soluble”. With “MTNSNNRQSEYPVDPLFLDRWSPRAFDGSPMPKEHLLTILDAAHWAPSASNHQPWRFVYAHKDSEDWPLFVELLMEGNQKWAKNASVLLFVISRDHTISHEGEKKPSATHSFDAGAAWFSLAMQAHLLGYHAHGMGGIFKDRIVEKLDIPDGFKVEAGVAIGTLTDKSILPDDLAEREVPSKRVPLADVAFEGRFTGKAD” the entry was “soluble”; with “MTPGVDGVNKTMLQARLAVELQILRDELLSGHYQPLPARRVYIPKSNGKLRPLGIPALRDRIVQRAMLMAMEPIWESDFHTLSYGFRPERSVHHAIRTVKLQLTDCGETRGRWVIEGDLSSYFDTVHHRLLMKAVRRRISDARFMTLLWKTIKAGHIDVGLFRAASEGVPQGGVISPLLSNIMLNEFDQYLHERYLSGKARKDRWYWNNSIQRGRSTAVRENWQWKPAVAYCRYADDFVLIVKGTKAQVEAIREECRGVLEGSLKLRLNMDKTKIPHVNDGFIFLGHRLIRKRSRYGEMRVVSTIPQEKARNFAASLTALLWKVRISGEILLGLEHHHHHH”, “soluble”.

As to “MTPNGHHFRTVIYNAAAVGNLQRIKVFTINSRNDRQWIIDCFNSDQDGRYPLVIAARNGHANVVEYLLEIGADPSVRGVVEFDNENIQGTPPLWAASAAGHIEIVKLLIEKANADVNQATNTRSTPLRGACYDGHLDIVKYLLEKGADPHIPNRHGHTCLMIASYRNKVGIVEELLKTGIDVNKKTERGNTALHDAAESGNVEVVKILLKHGSVLMKDIQGVDPLMGAALSGFLDVLNVLADQMPSGIHKRDALKLLGSTLLDKKMDAMSAMNCWKQSMEVPLHADDLRLVREMETFFEPQEVYEYQREAQNIAQVELLDGNIEAQRMQALVIRERILGGAHTDVHYYLRFRGAVYCDMGQMNRCYDLWKHALELQQKHFAPLYYGTITTLQSFHETFSMSLNDFVNNHHANRNLRVRSSWVKYVFNGVCLELERAAAWTGAPLLEDTECCGKERCQHATEESEYKKLVYVAVHLVNVLERLSLPSAHIDDSDEEKEPKADVRRLMIVCHELHIPLLHHTLEERIPDSNSAELGLPKAAVLEQLLELDLDVNATDKNNDTPMHILLRAREFRKSLVRALLVRGTWLFARNRHGDVVLNVMKRMKALNHANFDDLPLGRHITLAGLVANAMRVKYPKKFVGVEEQMPLELRRFYLAH”, the “soluble on expression in E. coli” value is on record as “not soluble”. “MTPSPEASEGPCVSKLRNEPLGALTPYVGVVDGPEVKKSKKIHGGDSAILGTYKMQSRFNRGVLLMVNIMDYPDQNRRRIGAEKDSKSLIHLFQELNFTIFPYGNVNQDQFFKLLTMVTSSSYVQNTECFVMVLMTHGNSVEGKEKVEFRDGSVVDMQKIKDHFQTAKCPYLVNKPKVLMFPFARGDEYDLGHPKNQGNLMEPVYTAQEEKWPDTQTEGIPSPSTNVPSLADTLVCYANTPGYVTHRDLDTGSWYIQKFCQVMADHAHDTDLEDILKKTSEAVGNKRTKKGSMQTGAYDNLGFNKKLYFNPGFFNE”: the “soluble on expression in E. coli” value is “soluble”.

For the sequence “MTQFTTELLNFLAQKQDIDEFFRSSLETAMNDLLQVELSAFLGYEPYDKAGYNTGNSRNGAYTRRFETKYGVVNLLIPRDRNGEFSPALIPSYGRRDNHLEEMVIKLYRTGVTTREISDIIERMYGHHYSPATVSNISKATQENVASFHERSLEANYTVLYLDGTYLPLRRGTVSKECIHIALGVTSYGHKAILGYDIAPNENNASWSDLLERFKGQGVQQVSLVVSDGFNGLDQLIQQAFPMAKQQRCLVHIGRNIASKVKRADRALILEQFKTIYRAINVEEAKQALDSFINEWKPHYKKVIETLESIENLLIFYEFPHQIWGSIYSTNLIESLNKEIKRQTKKKVVFPNEESLERYLVTLFSDYNFKQGQRIHKGFGQCTDTLESLFD”, the “soluble on expression in E. coli” value is reported as “not soluble”. With “MTQIIKIDPLNPEIDKIKIAADVIRNGGTVAFPTETVYGLGANAFDGNACLKIFQAKNRPVDNPLIVHIADFNQLFEVAKDIPDKVLEIAQIVWPGPLTFVLKKTERVPKEVTAGLDTVAVRMPAHPIALQLIRESGVPIAAPSANLATRPSPTKAEDVIVDLNGRVDVIIDGGHTFFGVESTIINVTVEPPVLLRPGPFTIEELKKLFGEIVIPEFAQGKKEAEIALAPGMKYKHYAPNTRLLLVENRNIFKDVVSLLSKKYKVALLIPKELSKEFEGLQQIILGSDENLYEVARNLFDSFRELDKLNVDLGIMIGFPERGIGFAIMNRARKASGFSIIKAISDVYKYVNI” the entry was “soluble”; with “MTQTPDREKALELAVAQIEKSYGKGSVMRLGDEARQPISVIPTGSIALDVALGIGGLPRGRVIEIYGPESSGKTTVALHAVANAQAAGGVAAFIDAEHALDPDYAKKLGVDTDSLLVSQPDTGEQALEIADMLIRSGALDIVVIDSVAALVPRAELEGEMGDSHVGLQARLMSQALRKMTGALNNSGTTAIFINQLRDKIGVMFGSPETTTGGKALKFYASVRMDVRRVETLKDGTNAVGNRTRVKVVKNKCLAPFKQAEFDILYGKGISREGSLIDMGVDQGLIRKSGAWFTYEGEQLGQGKENARNFLVENADVADEIEKKIKEKLGIGAVVTDDPSNDGVLPAPVDF”, “soluble”.

For “MTRFSGKVALVTGSSNGIGRATAVLLAQEGAKVTITGRNADRLEETRQEILKSGVPEDHVLSIATDLATEKGQDELVNSTIQKFGRLDILVNNAGAAFNDDQGRVGVDQDVSVYDRIMQINMRSVVTLTQKAKEHLVKAKGEVVNVSSIGAGPQAQPTFMYYAMSKAALDQYTRSAAIDLIQYGVRVNSVSPGAVVTGFGEAMGMPADMHEKYGHFMESRKECIPCGKMGQPIDIANIIAFLADRKLSSYIIGQSIVADGGSTLVMGMQAHNFMDLLKQ”, the “soluble on expression in E. coli” value is recorded as “not soluble”. As for “MTRLTLALDVMGGDFGPSVTVPAALQALNANSQLTLLLVGNPDIITPLLAKADFEQRSRLQIIPAQSVIASDARPSQAIRASRGTSMRVALELVKEGRAEACVSAGNTGALMGLAKLLLKPLEGIERPALVTVLPHQQKGKTVVLDLGANVDCDSTMLVQFAVMGAVLAEEVVGIKNPRVALLNIGEEETKGLDSIREASLMLKTVPTINYIGYLEANELLTGKTDVLVCDGFTGNVTLKTMEGVVRMFLSLLKSQGEGKKRSWWLLLLKRWLQKSLTRRFSHLNPDQYNGACLLGLRGTVIKSHGAANQRAFAVAIEQAVQAVQRQVPQRIAARLESVYPAGFEPLDDGKGVNLRAHR”, the “soluble on expression in E. coli” value was “not soluble”.

As to “MTRPHQPRIDLNHGFLRFIRRNQVDRDEYNRVHEERKSEIRERIGSSDSSQDGEEKAQSNVYVPPHLRRQKKENEEKFSALKASRSQSQSDTGSEEGEGASGGGEASCPIQQKQKAFDENVRRQVRRRIERTHPTVDDICIVLANYSLQEAASKNSENSNEDLFELVLTLKSGEQKTIGVPRNTQAARLAKSLSREHHFSDSQCRNLRIFIEEQLELRFAREKSTATSSDASIPGSPTSSSESSIIEFSA”, the “soluble on expression in E. coli” value is listed as “not soluble”.

With “MTRPLIVAAVIGSALAWHGSAQAQHSQAVAPAEPCTPVVLIERTGTCYAQVDPRFVTTLYFPRMVTSAVSSDERYFRASIVDDSVIVRPARDIDADALGNLSITAGEMKVSIMLGVAGHSSEVLPQIDFRALSEAEVFDARVAAEAERLHQDVKREYERRHRELEGEVTREATQLVGERLLQRHEPVRIDAIARNDDNVIVRVERGVWVGHELYLFFTVQNRSGTPYRVTHVGVFEESEHRAVADAGRAGQVEFDSAAPLVAGLLGTVRVDQFGRGVVHVRDARGAAGRRMTLRVSEERGERPVSVGGLSWR”, the “soluble on expression in E. coli” value was “not soluble”. “MTRVAINGFGRIGRMVFRQAIKESAFEIVAINASYPSETLAHLIKYDTVHGKFDGTVEAFEDHLLVDGKMIRLLNNRDPKELPWTDLGVEVVIEATGKFNSKEKAILHVEAGAKKVILTAPGKNEDVTIVVGVNEDQLDITKHTVISNASCTTNCLAPVVKVLDEQFGIENGLMTTVHAYTNDQKNIDNPHKDLRRARACGQSIIPTTTGAAKALAKVLPHLNGKLHGMALRVPTPNVSLVDLVVDVKRDVTVEAINDAFKTVANGALKGIVEFSEEPLVSIDFNTNTHSAIIDGLSTMVMGDRKVKVLAWYDNEWGYSRRVVDLVTLVVDELAKQENVQHI”: the “soluble on expression in E. coli” value is “soluble”. With “MTSIHVQVPATTANIGAGFDCLGAALSLHNQFQFRLAGESEPFFSLELVGADVETQKLEATADNLLYRAFAKVFATLGQPVPHVNIAIDLKVPLSRGLGSSATAIVGGLVGANALAGSPLSQREIMNLAIEMEGHPDNVVPALLGGCQLSVKHQQDWVI”, the “soluble on expression in E. coli” value was “not soluble”. In the case of “MTSITPSIQFFAGIFEELSNVSLRREVRTGKRIVMMKFNQLQAIEGFNSFTKQSLNSLLLTDEEGEISVTPSATRFIFGGDEGDELQGVECKFEVERDDHWERFMRFMNRYAEANDMEYGERLEHHHHHH” it was “soluble”; in that of “MTSPFKVVAVSGGTYRPSRTLVLTQALIAELGQSLPIDSRVIELTDIAAPLGATLARNQAPAELQAVLDEIESADLLLVASPVYRGSYPGLLKHLFDLIDLNALIDTPVLLAATGGTERHALVLDHQLRPLFSFFQAITLPIGVYASEADFDNYRIVSEPLKARIRLAAERAAPLFGGRSELLKIALEHHHHHH”, “not soluble”; in that of “MTSQPLRVGIGGPVGSGKTALTLALCRELRERYNLAVVTNDIYTQEDAEFLVRNEALAPERIIGVETGGCPHTAIREDASINLEAVDQLNRRFPGLELILVESGGDNLSATFSPELSDLTLYVIDVSAGDKIPRKGGPGICKSDLLVINKIDLAPLVGASLDVMDRDARRMRGDKPFVFSNQKTGQGLDEIIAFIERQGLLTAA”, “not soluble”. “MTSQPTSSLQGSCSICFEDLKQNDKISAIVCGHIYHHGCISQWIATKRQCPSCRRTVPKNGFVEKLFFDVQRMGGEAEKPPEIDYREEHYKLSTSLKVEQEKLGTLNTENKNLKDTVKSLEKKIIREKDKYRQEIPKLQATINHLTISSEETAYLKRELQESKNRLKTCEFYKILTVHSSEADKQLGEYLKKNGNLDTEKFFQLMKSTNKDLTDKRREAAKEIEQLKMEVQSLKRAAQEDAAIKKV”: the “soluble on expression in E. coli” value is listed as “not soluble”. On to “MTSSDSNVDPGLGIAVDLGTTTLAASLVDLSSGERLASAGSLNPQREFGADVVSRLDAACRSGEALQRMAALVREELYRLAARLLDSAGEARDRLRMVAVAGNPAMEHLLLGLPVVRLAYPPYRPLFSTSTHISAADLGWDLSGRVALFPLPGGFVGGDTVAFLFGVPDVCAPCPGPRLFLDMGTNGEMVLQCGDVLLGTSAAAGPAFEGGGLACGMAALPGAVNGIIRDGDRVRVTTIGGGQPLGICGSAVLDTVALLLEEGLLDSTGRLLPPEEIASPVGARMGTVGGEPAFILHRDAARTIYLSQGDIRQVQLAKGAIRAGMEVLCERARIRCEDIEEVVLTGSFGAVLSPRSLKFIGIFTEKMVQTTRFVREGALAGAERALTAPEGFEAVDRLARALRVIPLSGTPAFEKHFLKHIDFPSRLEHHHHHH”, for which the “soluble on expression in E. coli” value was “soluble”.

The values above are taken from the DeepSol protein solubility set.
